Laboratory results: article PMC8386104 (RSC Chemical Biology, 2020)

Tests used:
MDM2 = MDM2 (UniProt Q00987 1-491); assay: fluorescence polarisation
MDMX = target: T1, MDMX (UniProt O15151 1-490); assay: fluorescence polarisation
T1 sequence: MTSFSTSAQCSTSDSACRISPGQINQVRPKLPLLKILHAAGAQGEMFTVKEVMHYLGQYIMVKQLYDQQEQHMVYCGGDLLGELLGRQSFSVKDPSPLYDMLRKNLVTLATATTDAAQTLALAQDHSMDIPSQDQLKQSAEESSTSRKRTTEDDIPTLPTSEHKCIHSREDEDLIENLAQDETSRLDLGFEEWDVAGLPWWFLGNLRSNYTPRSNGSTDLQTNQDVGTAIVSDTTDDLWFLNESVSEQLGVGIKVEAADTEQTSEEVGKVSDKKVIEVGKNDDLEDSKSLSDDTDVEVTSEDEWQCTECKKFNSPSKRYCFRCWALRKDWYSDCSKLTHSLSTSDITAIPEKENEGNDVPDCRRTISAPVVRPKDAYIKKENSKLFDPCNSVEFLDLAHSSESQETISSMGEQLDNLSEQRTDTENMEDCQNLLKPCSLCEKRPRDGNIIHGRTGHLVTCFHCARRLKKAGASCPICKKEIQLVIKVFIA

MDM2, sequence (Q00987 whole entry): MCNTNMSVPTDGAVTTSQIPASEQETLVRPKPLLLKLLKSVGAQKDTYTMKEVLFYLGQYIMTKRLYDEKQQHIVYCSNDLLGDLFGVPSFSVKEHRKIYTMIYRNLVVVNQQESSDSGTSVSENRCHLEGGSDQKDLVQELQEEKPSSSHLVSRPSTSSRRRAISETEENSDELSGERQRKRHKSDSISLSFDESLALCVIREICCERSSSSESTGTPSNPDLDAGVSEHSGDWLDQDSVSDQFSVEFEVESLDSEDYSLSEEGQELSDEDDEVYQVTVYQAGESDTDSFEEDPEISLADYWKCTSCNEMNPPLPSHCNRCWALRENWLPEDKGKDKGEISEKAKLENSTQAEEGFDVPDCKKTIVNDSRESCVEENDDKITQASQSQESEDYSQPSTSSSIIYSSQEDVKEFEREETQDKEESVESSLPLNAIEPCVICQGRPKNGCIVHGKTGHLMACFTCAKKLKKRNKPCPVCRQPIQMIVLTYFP

IC50 (MDM2): < 1 nM
IC50 (MDMX): < 1 nM
B1: PF4P_pDI (designed binder)
chain: LTFEHYWALLT
modifications: C-terminal amide
